Experimental findings from patent US20240150489A1 are described below.

Test [1] concerns the target CD38 on Raji-CD47KO cells (human) (UniProt P28907). The test is described as follows: flow cytometry dot plot, Raji-CD47KO cells, mix of saturating Darzalex-AF647 and BEAT 38/47-60-AF488; other quadrants printed Q1 0.070, Q3 0.21, Q4 0.035. On the technique in general: In flow cytometry, cells or beads pass a laser one at a time.
Test [2] shares this target. The test is described as follows: flow cytometry dot plot, Raji-CD47KO cells, saturating Darzalex-AF647 alone; other quadrants printed Q1 0, Q2 0, Q4 0.23.

Darzalex (antibody) returned a percent of cells in quadrant Q2 (AF488 and AF647 double positive) in test [1] of 99.7%. The percent of cells in quadrant Q3 (AF647 positive, AF488 negative) in test [2] was found to be 99.8%.
